Test [1] relates to collagen-induced arthritis. As to conditions: mice, reference [20]; cited from earlier work.
Test [2] relates to mechanically loaded mouse knee. Briefly: Mechanically loaded mouse knee, D1 2G nanosomes: cartilage damage by MabCII680 fluorescence. It counts as in vivo, C57BL/6 mice. The settings on record: intraarticular 50 μL, 500 μM TPCA-1, 2 injections, two-week loading; vs PBS. An excerpt: Targeted nanosomes were generated from lipids and conjugated to purified D1 2G monoclonal antibody from a hybridoma isolated from mice immunized with type II collagen (MabCII). Briefly, the lipid film which contained 5.2 μmol dioleoyl-sn-glycero-3-phosphocholine (DOPC), 4.5 μmol cholesterol, 0.3 μmol 1,2-distearoyl-sn-glycero-3-phosphoethanolamine-N-[maleimide (polyethylene glycol) 2000] (DSPE-PEG-maleimide) and TPCA-1 was rehydrated with phosphate buffered saline (PBS) and sonicated. The rehydrated lipids were repeatedly extruded through a 200 nm porous membrane to generate 200 nm 1-3 walled nanosomes. The MabCII were thiolated using Traut's reagent, then mixed with the nanosomes for conjugation. After conjugation, the reaction mixture was chromatographed on a Sepharose CL-4B column to separate the free antibodies from the coupled liposomes. […]
At the completion of the two-week loading period, mice were injected retro-orbitally with 100 μL composite mixture of 50 μL of monoclonal antibody to type II collagen (MabCII680) labeled with XenoFluor 680 (XF680; Caliper) fluorescent dye and 50 μL of MMPSense-750 (Perkin-Elmer, Waltham, Mass.) a substrate that fluoresces when cleaved by MMPs. After 24 hours, the mice were anesthetized and the knee joints were optically scanned for each type of fluorescence using a Lumina XR (Perkin Elmer, Waltham, Mass.).

Test [3] concerns mechanically loaded mouse knee. Nature of the test: Mechanically loaded mouse knee (PTOA), E4 nanosomes: cartilage damage by MabCII680 fluorescence. It counts as in vivo, C57BL/6 mice. As to conditions: intravenous, 100 uM TPCA-1, 3 injections, two-week loading; vs empty nanosomes (Control). An excerpt:
(§1) Targeted nanosomes were generated from lipids and conjugated to purified E4-D4 (E4) monoclonal antibody to type II collagen that was developed from a hybridoma isolated from mice immunized with type II collagen. Briefly, the lipid film which contained dioleoyl-sn-glycero-3-phosphocholine (DOPC), cholesterol, 1,2-distearoyl-sn-glycero-3-phosphoethanolamine-N-[maleimide (polyethylene glycol) 2000] (DSPE-PEG-maleimide) and TPCA-1 was rehydrated with phosphate buffered saline (PBS) and sonicated. The rehydrated lipids were repeatedly extruded through a 200 nm porous membrane to generate 200 nm 1-3 walled nanosomes. The E4 MabCII was thiolated using Traut's reagent, then mixed with the nanosomes for conjugation. […] The E4 MabCII was also conjugated to the near infrared dye XenoLight CF 680 (PerkinElmer) used for the final quantitative imaging of arthritic damage. […]
(§2) At the completion of the two-week loading period, mice were injected retro-orbitally with 100 μL composite mixture of 50 μL of 1 mg/ml E4 monoclonal antibody to type II collagen MabCII680 labeled with Xenolight CF 680 fluorescent dye and 50 μL of MMPSense-750 (Perkin-Elmer, Waltham, Mass.), a substrate that fluoresces when cleaved by MMPs. After 24 hours, the mice were anesthetized and the knee joints were optically scanned for each type of fluorescence using a Lumina XR Imaging System (Perkin Elmer, Waltham, Mass.).

Test [4] concerns MMPs. Briefly: Mechanically loaded mouse knee (PTOA), E4 nanosomes: MMP activity by MMPSense-750 fluorescence. It counts as in vivo, C57BL/6 mice. The settings on record: intravenous, 100 uM TPCA-1, 3 injections, two-week loading; vs control nanosomes.
Text: as §1, §2

In test [5] the test system is exposed type II collagen in articular cartilage explants. Briefly: Binding of fluorescent avidin/biotinylated reparative cells to cartilage explants pre-incubated with biotinylated antibody (IVIS imaging). Set-up: species or system domestic pigs. As to conditions: for binding of fluorescent avidin/biotinylated ADSC cells to cartilage explant: biotinylated antibody 1 hr. The protocol: Type II collagen monoclonal antibody (MabCII) at a concentration of 1 mg/mL was buffer exchanged with phosphate buffered saline (PBS). The linking reagent NHS-PEG4-Biotin (Thermo Scientific) was then brought up in distilled water to a recommended 20-fold molar excess of Biotin per mg/mL of MabCII. The biotinylated MabCII sample was then added to a Zeba spin desalting column (Thermo Scientific) column and centrifuged at 1000×g for 2 minutes in order to remove excess biotin reagent. The collected flow-through solution was the purified sample. As a control, irrelevant monoclonal mouse IgG antibody of the same subclass (Isotope Control from R&D Systems, Inc.) was similarly prepared.
The reparative cells (isolated chondrocytes or chondrogenically differentiated ADSCs) previously labeled with a fluorescent dye (Vivotrack 680: PerkinElmer, MA), were re-suspended at 1×10^6 cells/ml in fresh serum-free medium with 250 mM sucrose, 1 mM HEPES, and 1 mM CaCl2. The PE-PEG-Biotin stock solution (1 mM) was then added to the various tubes at 25 μM final concentration and incubated for 60 minutes to allow PE-PEG-Biotin integration into the cell membranes. Neutravidin was dissolved in PBS and added to the PE-PEG-Biotin labeled cells at a final concentration of […] of Neutravidin. The tubes were then allowed to incubate on a rocker platform for 30 minutes at 37° C. for binding. After incubation, the cells were centrifuged, supernatants were discarded, and serum-free medium was added and the cells vortexed ready to incubate with the cartilage explants.
Cartilage explants were harvested from the articular cartilage of femoral condyles of domestic pigs ranging from 25 to 30 kilograms and were punched from cartilage explants taken from the surface of articular cartilage with a 6 mm dermal punch to provide equivalent surface areas. The cartilage explants were divided into two groups for incubation with biotinylated Mab; one group that would be mechanically damaged and one group with no damage (normal). […]

Test [6] has as its system type II collagen (Col2a1) expression. Nature of the test: Type II collagen gene expression (PCR) of reparative cells bound to devitalized scratched cartilage explants. It counts as cell-based, pig. As to conditions: one week. The method, then: For evaluation of gene expression of the reparative cells attaching to cartilage explants with the two step MabCII, biotin-avidin system described above, cartilage explants were devitalized by freeze thawing and washed three times before incubation with biotinylated MabCII and avidin/biotinylated chondrocytes or avidin/biotinylated chondrogenically differentiated ADSC cells as described above. After washing to remove unbound cells, the cells bound to the explants were incubated for one week in complete F12K culture medium with 10% FCS. The explants were then washed and the RNA extracted with Trizol for quantitative polymerase chain reaction (PCR) for the cartilage specific-type II collagen expression. Quantitative gene expression was analyzed by PCR using primers specific for type II collagen (Col-II) and the housekeeping gene glyceraldehyde-3-phosphate dehydrogenase (GAPDH). Gene expression was calculated as 2^−ΔΔCT after normalization to GAPDH expression. For some experiments gene expression from avidin/biotinylated cells that were incubated in standard tissue culture wells or incubated with cartilage with no antibody for the same period of time were set as 1+/− standard error of the mean (SEM) and compared to same type of cells binding to the cartilage explants.

For `NC(=O)Nc1sc(-c2ccc(F)cc2)cc1C(N)=O` [TPCA-1, 2-[(aminocarbonyl)amino]-5-(4-fluorophenyl)-3-thiophenecarboxamide], the “proinflammatory mediators in collagen-induced arthritis” value in test [1] is “reduce proinflammatory mediators such as TNF-α”. Further, the results for the “cartilage damage: binding of MabCII680, intensity in region of interest” value in test [2] and in test [3] were “no improvement” and “did not show significant improvement”, respectively. The “MMP activity: fluorescence of MMPSense-750” value in test [4] is “did not show significant reduction”.

B1: MabCII: monoclonal antibody to type II collagen from E4-D4 (E4) hybridoma clone; mouse IgG2a heavy chain, kappa light chain; VH/VL SEQ ID NO: 6/14 (antibody, listed as Mus musculus, V domains shown)
VH: EVQLVESGGGLVKPGGSLKVSCEASGFTFSDYGMHWVRQAPEKGLEWVAYISSVSSTIYYADTVEGRFTISRDNVRNTLFLQMTSLRSEDTAMYYCAREGWLPLFAFWGQGTLVTVSA
VL: DIVLTQSHKFMSTSVGDRVSITCKASQDVSITVAWYQQKPGQSPKLLIYSASYRNPGVPDRFTGSGSGTDFNFTISTVQAEDLAVYYCQQYYIIPWTFGGGTKLEFKR
Turning to B1, the “binding of isolated articular chondrocytes to cartilage explant” value in test [5] (avidin/biotinylated chondrocytes, data not shown) is on record as “same specificity of binding”. The figures for the “binding of fluorescent avidin/biotinylated ADSC cells to cartilage explant” value in test [5] (damaged (scratched) cartilage) and in test [5] (normal (unscratched) articular cartilage) were “significant amount of reparative cells binding” and “not detectable”, respectively. The “expression of CII relative to cells maintained without cartilage in standard tissue culture” value in test [6] (articular chondrocytes on explants) is “equivalent”. Besides, the “type II collagen (Col2a1) gene expression of targeted cells” value is “continue to express type II collagen” in test [6] (avidin/biotinylated ADSC, FIG. 9B) and “continue to express type II collagen” in test [6] (avidin/biotinylated chondrocytes, FIG. 9A).
